This note sets out measurements from patent publication US20190167756A1 (CITY OF HOPE, published 2019).

The test concerns the target T1, CFP-AR-YFP (full length AR with cyan fluorescent protein and yellow fluorescent protein fused to either end) (UniProt P10275 1-920).
T1 construct: Reporter stably expressed in GT1-7 CARY cells; GT1-7 CARY lysates may also contain endogenous mouse AR; also called CARY; C-AR-Y; not shown: cyan fluorescent protein (CFP); yellow fluorescent protein (YFP)
T1 sequence (looked up): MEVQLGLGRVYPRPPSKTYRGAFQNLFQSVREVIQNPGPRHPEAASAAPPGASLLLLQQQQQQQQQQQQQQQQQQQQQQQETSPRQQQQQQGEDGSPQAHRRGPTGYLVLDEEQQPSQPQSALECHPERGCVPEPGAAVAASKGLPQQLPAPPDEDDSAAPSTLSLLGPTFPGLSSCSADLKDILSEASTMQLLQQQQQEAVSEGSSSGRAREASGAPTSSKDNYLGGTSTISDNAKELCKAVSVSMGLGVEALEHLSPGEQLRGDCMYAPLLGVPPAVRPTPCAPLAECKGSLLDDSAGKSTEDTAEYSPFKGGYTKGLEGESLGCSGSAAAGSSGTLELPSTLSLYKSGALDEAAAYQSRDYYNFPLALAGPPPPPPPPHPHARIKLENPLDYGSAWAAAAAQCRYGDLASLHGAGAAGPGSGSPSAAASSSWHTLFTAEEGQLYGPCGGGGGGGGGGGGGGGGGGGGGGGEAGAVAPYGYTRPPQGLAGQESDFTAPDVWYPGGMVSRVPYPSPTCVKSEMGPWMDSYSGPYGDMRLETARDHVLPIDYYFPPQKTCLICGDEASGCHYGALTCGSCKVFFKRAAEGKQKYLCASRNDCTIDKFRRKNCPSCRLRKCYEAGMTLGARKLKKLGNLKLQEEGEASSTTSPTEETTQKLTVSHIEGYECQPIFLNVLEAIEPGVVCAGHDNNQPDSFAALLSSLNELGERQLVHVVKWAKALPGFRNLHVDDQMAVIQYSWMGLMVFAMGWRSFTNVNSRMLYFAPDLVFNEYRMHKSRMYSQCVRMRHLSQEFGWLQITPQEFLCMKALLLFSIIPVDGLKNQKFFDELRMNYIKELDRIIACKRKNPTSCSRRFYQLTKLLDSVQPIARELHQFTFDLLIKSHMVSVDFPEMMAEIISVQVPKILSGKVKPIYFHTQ
Description: co-immunoprecipitation from GT1-7 CARY cell lysates, Western blot.

B1: FOXM1 (other, mouse, UniProt O08696 1-760, looked up)
chain: MRTSPRRPLILKRRRLPLPVQNAPSETSEEEAKRSPAQPEPAPAQASQEVAESSSCKFPAGIKIINHPTTPNTQVVAIPSNADIQSIITALTAKGKESGTSGPNRFILISSGGPSSHPSQPQAHSSRDSKRAEVITETLGPKPAAKGVPVPKPPGAPPRQRQESYAGGEAAGCTLDNSLTNIQWLGKMSSDGLGPCSVKQELEEKENCHLEQNRVKVEEPSGVSTSWQDSVSERPPYSYMAMIQFAINSTERKRMTLKDIYTWIEDHFPYFKHIAKPGWKNSIRHNLSLHDMFVRETSANGKVSFWTIHPSANRHLTLDQVFKPLEPGSPQSPEHLESQQKRPNPELHRNVTIKTEIPLGARRKMKPLLPRVSSYLEPIQFPVNQSLVLQPSVKVPFRLAASLMSSELARHSKRVRIAPKVLLSSEGIAPLPATEPPKEEKPLLGGEGLLPLLPIQSIKEEEMQPEEDIAHLERPIKVESPPLEEWPSPCASLKEELSNSWEDSSCSPTPKPKKSYCGLKSPTRCVSEMLVTKRREKREVSRSRRKQHLQPPCLDEPDLFFPEDSSTFRPAVELLAESSEPAPHLSCPQEEGGPFKTPIKETLPVSSTPSKSVLSRDPESWRLTPPAKVGGLDFSPVRTPQGAFGLLPDSLGLMELNTTPLKSGPLFDSPRELLNSEPFDLASDPFGSPPPPHVEGPKPGSPELQIPSLSANRSLTEGLVLDTMNDSLSKILLDISFPGLEEDPLGPDNINWSQFIPELR
notes: also called Forkhead Box Protein M1
As to B1, the binding result is listed as “no binding”.
